Test results published in patent publication US20250092426, “CAS ENDONUCLEASES AND RELATED METHODS” (Flagship Pioneering Innovations VII, LLC, published 2025).

Biological target: T1, CasEnd-4 (synthetic construct)
T1 chain: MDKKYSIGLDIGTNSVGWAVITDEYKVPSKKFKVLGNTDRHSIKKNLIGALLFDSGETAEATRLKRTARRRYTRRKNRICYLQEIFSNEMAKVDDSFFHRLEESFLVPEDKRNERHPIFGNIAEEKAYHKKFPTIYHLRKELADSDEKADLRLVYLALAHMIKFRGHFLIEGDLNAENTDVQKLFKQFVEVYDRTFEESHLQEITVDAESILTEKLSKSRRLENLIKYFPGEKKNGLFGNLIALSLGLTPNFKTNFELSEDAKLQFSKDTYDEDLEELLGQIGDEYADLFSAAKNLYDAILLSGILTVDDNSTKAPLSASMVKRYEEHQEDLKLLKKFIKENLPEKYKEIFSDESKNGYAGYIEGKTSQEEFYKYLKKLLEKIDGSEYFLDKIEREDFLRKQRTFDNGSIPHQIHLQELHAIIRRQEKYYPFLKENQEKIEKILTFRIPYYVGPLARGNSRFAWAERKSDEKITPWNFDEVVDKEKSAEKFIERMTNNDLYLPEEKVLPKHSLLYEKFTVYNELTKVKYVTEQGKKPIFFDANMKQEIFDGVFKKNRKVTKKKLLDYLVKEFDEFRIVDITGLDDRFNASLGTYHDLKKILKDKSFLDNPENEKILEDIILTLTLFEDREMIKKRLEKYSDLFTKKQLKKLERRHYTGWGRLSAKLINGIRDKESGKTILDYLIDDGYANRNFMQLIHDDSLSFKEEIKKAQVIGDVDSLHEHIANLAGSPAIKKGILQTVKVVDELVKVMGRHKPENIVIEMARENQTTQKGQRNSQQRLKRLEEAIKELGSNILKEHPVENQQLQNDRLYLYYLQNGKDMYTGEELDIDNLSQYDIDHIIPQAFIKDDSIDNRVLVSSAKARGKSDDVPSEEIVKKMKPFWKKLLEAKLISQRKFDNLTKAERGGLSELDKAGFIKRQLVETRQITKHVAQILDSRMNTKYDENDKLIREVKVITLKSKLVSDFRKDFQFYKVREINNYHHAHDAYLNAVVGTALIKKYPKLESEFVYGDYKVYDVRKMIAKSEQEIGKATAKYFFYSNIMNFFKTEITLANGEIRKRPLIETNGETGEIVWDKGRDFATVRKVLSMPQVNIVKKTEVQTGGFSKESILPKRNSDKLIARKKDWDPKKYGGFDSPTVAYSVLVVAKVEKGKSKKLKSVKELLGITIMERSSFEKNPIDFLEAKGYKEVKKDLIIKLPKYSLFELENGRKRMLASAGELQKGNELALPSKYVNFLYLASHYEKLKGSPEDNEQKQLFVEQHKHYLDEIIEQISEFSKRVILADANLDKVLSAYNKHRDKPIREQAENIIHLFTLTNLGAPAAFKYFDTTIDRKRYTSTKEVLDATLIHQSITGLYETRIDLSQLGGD
Experiment: cell_activity; +++; HEK293T; PAM not stated
Method in brief: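 BFP-to-GFP conversion via reverse transcriptase fusion with each Cas endonuclease plus template RNA: 200 ng of each plasmid nucleofected into 250,000 BFP-expressing HEK293T cells (program DS-150). Percent GFP+ cells by flow cytometry at day 4 measured editing.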

B1: BFP-to-GFP template RNA ; BFP reporter protospacer (ssRNA ; dsDNA)
RNA: GCCGAAGCACUGCACGCCGUGUUUUAGAGCUAGAAAUAGCAAGUUAAAAUAAGGCUAGUCCGUUAUCAACUUGAAAAAGUGGCACCGAGUCGGUGCACCCUGACGUACGGCGUGCAGUGCUU
DNA 1: GCCGAAGCACTGCACGCCGT
DNA 2: ACGGCGTGCAGTGCTTCGGC
B1 was tested, and the activity was ≥ 100 % of reference.
